Measurements published in patent US20210403600A1 (University of California, published 2021).
Where a chain is given by its changes, count along the chain named. One block for each binder: values may come before it.

Assays:
[1] = target: T1, human Factor XIa (blood-derived, Haematologic Technologies Inc.) (human, UniProt P03951 19-387; P03951 388-625); experiment: ELISA, wells coated with hFXIa, anti-human IgG HRP, OD 450
T1 construct: It was biotinylated via primary amines for selections, Octet and Biacore; also called FXIa; human FXIa

[2] = target: T1, human Factor XIa (blood-derived, …); experiment: SPR (Biacore T200), biotinylated FXIa captured on a CAP chip, Fab as analyte, 37 C
[3] = target: T1, human Factor XIa (blood-derived, …); experiment: SPR (Biacore T200), biotinylated FXIa captured on a CAP chip, IgG as analyte, 25 C
Cyno FXI = target: T2, Cyno FXI (Macaca fascicularis, UniProt A0A2K5VVW4); experiment: ELISA, wells coated with cynomolgus FXI (zymogen), anti-human IgG HRP, OD 450
T2 construct: coating antigen 'FXI' of the chart titled 'Cyno FXI/FXIA'; also called cynomolgus monkey FXI (zymogen)

EC50 (read off the curve) [1]: ~1 ng/mL
B1: Clone 24 IgG (antibody, V domains shown)
VH: EVQLVQSGAEVKKPGASVKVSCKASGYTFTGYYMHWVRQAPGQGLEWMGWIDPDSGDTNYAQKFQGRVTMTRDTSISTAYMELSRLRSDDTAVYYCARLASGFRDYWGQGTLVTVSS
VL: DIVMTKSPSSLSASVGDRVTITCRASQGIRNDLGWYQQKPGKAPKRLIYAASSLQSGVPSRFSGSGSGTEFTLTISSLQPEDFATYYCLQHDIYASTFGPGTKVDIKR
notes: also called C24

Kd [2]: 0.0339 nM
B2: DEF Fab (Fab, V domains shown)
VH: B1 VH with S55E
VL: B1 VL with R108T

Kd [3]: 0.93 nM | binding result (Cyno FXI): no binding (tested: not printed)
B3: D4 IgG (antibody, V domains shown)
VH: not shown
VL: B1 VL with K6Q
notes: also called D4 mAb; D4 anti-FXIa mAb

Kd [2]: 0.0152 nM
B4: C24 Fab (Fab, V domains shown)
VH: B1 VH
VL: B1 VL
notes: Fab format of clone 24; also called clone 24 Fab; anti-FXIa C24 Fab
